# B1: Pistol ribozyme (parent)
# chain: GGGUCGUUGUUCCAUAAUCGCGUGGAUAUGGCACGCAAGUUUCUACCGGGCACCGUAAAUGUCCGACUGGAGCCGUUCGGGCGGCUAUAAACAGACCUCAGGCCCGAAGCGUGGCGGCACCUGCCGCCGGUGGUAAAAAAGAUCGGAAGAGCACACGUCU
# Variants of: B1
# Experiment: aptazyme ON/OFF ratio, guanine; higher = stronger switching; co-transcriptional cleavage with and without guanine
row,Variant,aptazyme ON/OFF ratio
1,U8C G9U U10G C12U C13U,1.01
2,U8C G9U U10G C12U C13A,1.28
3,U8C G9U U10G C12U C13G,1.11
4,U8C G9U U10A U11A C12U,1.48
5,U8C G9U U10A U11A C12A,1.39
6,U8C G9U U10A U11A C12G,1.32
7,U8C G9U U10A U11G C12A C13A,1.14
8,U8C G9U U10A U11G C12A C13U,1.26
9,U8C G9U U10A U11G C12A C13G,1.13
10,U8C U10A U11A C12U C13U,1.26
11,U8C U10A U11A C12U C13G,1.3
12,U8C U10A U11A C12U C13A,1.18
13,U8C G9U U10A U11A C12U C13G,1.2
14,U8C G9U U10A U11A C12U C13A,1.14
15,U8C G9U U10A U11A C12U C13U,1.5
16,U8C G9U U10A U11C C12U C13A,1.19
17,U8C G9U U10A U11C C12U C13U,1.23
18,U8C G9U U10A U11C C12U C13G,1.09
19,U8C G9U U10A C12G C13U,1.17
20,U8C G9U U10A C12G C13G,1.13
21,U8C G9U U10A C12G C13A,1.27
22,U8C G9U U10G U11C C12U C13A,1.19
23,U8C G9U U10G U11C C12U C13G,1.11
24,U8C G9U U10G U11C C12U C13U,1.19

row,Variant,aptazyme ON/OFF ratio
1,U8C U10A U11C C13G,1.04
2,U8C U10A U11C C13U,1.03
3,U8C U10A U11C C13A,1.02
4,U8C G9U U11G C13A,1.24
5,U8C G9U U11G C13G,1.02
6,U8C G9U U11G C13U,1.23
7,U8C G9U C12G C13U,1.25
8,U8C G9U C12G C13G,1.17
9,U8C G9U C12G C13A,1.21
10,U8C U10A U11C C12A C13A,1.11
11,U8C U10A U11C C12A C13U,1.08
12,U8C U10A U11C C12A C13G,1.07
13,U8C U10A U11A,1.18
14,U8C U10A U11G,1.29
15,U8C U10A U11C,1.02
16,U8C G9U U10C U11G C12A C13U,1.12
17,U8C G9U U10C U11G C12A C13G,1.17
18,U8C G9U U10C U11G C12A C13A,1.19
19,U8C G9U U11C C12U C13A,1.04
20,U8C G9U U11C C12U C13G,1.04
21,U8C G9U U11C C12U C13U,1.1
22,U8C G9U U10G C12G,1.6
23,U8C G9U U10G C12U,1.35
24,U8C G9U U10G C12A,1.66

row,Variant,aptazyme ON/OFF ratio
1,U8C G9U U11A C12A C13G,1.16
2,U8C G9U U11A C12A C13A,1.26
3,U8C G9U U11A C12A C13U,1.34
4,U8C G9U C12A,1.37
5,U8C G9U C12U,1.42
6,U8C G9U C12G,1.42
7,U8C G9U U10A U11G,1.74
8,U8C G9U U10A U11A,2.18
9,U8C G9U U10A U11C,1.06
10,U8C G9U U11G C12U C13A,1.16
11,U8C G9U U11G C12U C13G,1.15
12,U8C G9U U11G C12U C13U,1.14
13,U8C G9U U10C U11A C12U C13G,1.09
14,U8C G9U U10C U11A C12U C13U,1.2
15,U8C G9U U10C U11A C12U C13A,1.13
16,U8C G9U U10C U11A,1.44
17,U8C G9U U10C U11C,1.05
18,U8C G9U U10C U11G,1.33
19,U8C G9U U11G,1.48
20,U8C G9U U11A,1.35
21,U8C G9U U11C,1.07
22,U8C G9U U10C U11C C12G C13A,1.06
23,U8C G9U U10C U11C C12G C13U,1.07
24,U8C G9U U10C U11C C12G C13G,1.15

row,Variant,aptazyme ON/OFF ratio
1,U8C G9U U10A C12A,1.8
2,U8C G9U U10A C12G,1.27
3,U8C G9U U10A C12U,1.56
4,U8C G9U U10G U11G C12U C13A,1.11
5,U8C G9U U10G U11G C12U C13G,1.08
6,U8C G9U U10G U11G C12U C13U,1.15
7,U8C G9U U11A C12G C13U,1.22
8,U8C G9U U11A C12G C13A,1.13
9,U8C G9U U11A C12G C13G,1.12
10,U8C G9U U11A C12U,1.39
11,U8C G9U U11A C12A,1.37
12,U8C G9U U11A C12G,1.36
13,U8C G9U U10A U11A C12G C13G,1.16
14,U8C G9U U10A U11A C12G C13U,1.21
15,U8C G9U U10A U11A C12G C13A,1.2
16,U8C U10A U11G C12U C13U,1.27
17,U8C U10A U11G C12U C13A,1.32
18,U8C U10A U11G C12U C13G,1.22
19,U8C G9U U10A U11A C13G,1.07
20,U8C G9U U10A U11A C13U,1.22
21,U8C G9U U10A U11A C13A,1.15
22,U8C G9U U11G C12A,1.08
23,U8C G9U U11G C12G,1.2
24,U8C G9U U11G C12U,1.59

row,Variant,aptazyme ON/OFF ratio
1,U8C U10A U11G C12G C13U,1.28
2,U8C U10A U11G C12G C13G,1.39
3,U8C U10A U11G C12G C13A,1.43
4,U8C G9U U10C C12G,1.26
5,U8C G9U U10C C12A,1.19
6,U8C G9U U10C C12U,1.05
7,U8C G9U U10C C12A C13A,1.1
8,U8C G9U U10C C12A C13G,1.11
9,U8C G9U U10C C12A C13U,1.19
10,U8C G9U U10G U11G C13G,1.13
11,U8C G9U U10G U11G C13A,1.14
12,U8C G9U U10G U11G C13U,1.27
13,U8C G9U U10G U11A C12A C13A,1.44
14,U8C G9U U10G U11A C12A C13U,1.72
15,U8C G9U U10G U11A C12A C13G,1.17
16,U8C U10A U11G C12A C13U,1.33
17,U8C U10A U11G C12A C13A,1.24
18,U8C U10A U11G C12A C13G,1.26
19,U8C G9U C12U C13G,1.04
20,U8C G9U C12U C13U,0.959
21,U8C G9U C12U C13A,1.25
22,U8C U10A U11A C12A C13U,1.12
23,U8C U10A U11A C12A C13A,1.19
24,U8C U10A U11A C12A C13G,1.07

row,Variant,aptazyme ON/OFF ratio
1,U8C G9U U10C U11A C12G C13G,1.11
2,U8C G9U U10C U11A C12G C13A,1.08
3,U8C G9U U10C U11A C12G C13U,1.08
4,U8C G9U U10G U11G C12G C13G,1.1
5,U8C G9U U10G U11G C12G C13U,1.26
6,U8C G9U U10G U11G C12G C13A,1.14
7,U8C U10A U11A C12G C13U,1.28
8,U8C U10A U11A C12G C13G,1.35
9,U8C U10A U11A C12G C13A,1.15
10,U8C G9U U10C U11G C12U C13G,1.12
11,U8C G9U U10C U11G C12U C13A,1.13
12,U8C G9U U10C U11G C12U C13U,1.25
13,U8C G9U U10C U11C C13A,1.03
14,U8C G9U U10C U11C C13G,1.02
15,U8C G9U U10C U11C C13U,1.04
16,U8C G9U U10A U11G C12G C13G,1.12
17,U8C G9U U10A U11G C12G C13U,1.14
18,U8C G9U U10A U11G C12G C13A,1.13
19,U8C G9C U11G C12A C13U,1.1
20,U8C G9C U11G C12A C13A,1.09
21,U8C G9C U11G C12A C13G,1.14
22,U8C U10A C12A C13U,1.18
23,U8C U10A C12A C13G,1.1
24,U8C U10A C12A C13A,1.26

row,Variant,aptazyme ON/OFF ratio
1,U8C G9U U10G U11A C12G,1.22
2,U8C G9U U10G U11A C12U,1.04
3,U8C G9U U10G U11A C12A,1.56
4,U8C G9U U10G U11G,2.19
5,U8C G9U U10G U11C,1.13
6,U8C G9U U10G U11A,1.13
7,U8C G9U U11G C12G C13G,1.1
8,U8C G9U U11G C12G C13U,1.09
9,U8C G9U U11G C12G C13A,1.19
10,U8C U10A U11C C12G C13U,1.2
11,U8C U10A U11C C12G C13A,1.16
12,U8C U10A U11C C12G C13G,1.38
13,U8C G9C U11G,1.03
14,U8C G9U U10C U11C C12A C13G,1.62
15,U8C G9U U10C U11C C12A C13U,1.07
16,U8C G9U U10C U11C C12A C13A,1.09
17,U8C G9C U11G C12U,1.12
18,U8C G9C U11G C12A,1.13
19,U8C G9C U11G C12G,1.19
20,U8C G9U U10G U11G C12A C13A,1.14
21,U8C G9U U10G U11G C12A C13U,1.17
22,U8C G9U U10G U11G C12A C13G,1.07
23,U8C G9U U10A C12A C13G,1.19

# From the RNAGym collection of RNA variant scans (doi:10.1021/acssynbio.7b00057)
